Reference: patent US20200299373A1

Key:
[1] = target: recombinant human FAM19A5 protein (His-tagged) (human) (UniProt Q7Z5A7); test: ELISA on N'-Term His FAM19A5, fit of the titration; R2 printed 0.9303; the text gives about 2.77 nM for 2-13, which on the sheet stands under 13F7
[2] = target: recombinant human FAM19A5 protein (His-tagged) (human) (UniProt Q7Z5A7); test: two-site sandwich ELISA; capture antibody P2-A03; S/N = O.D. at 10 ng/mL antigen / O.D. at 0 ng/mL; O.D. in column 0 printed 0.39
[3] = target: recombinant human FAM19A5 protein (His-tagged) (human) (UniProt Q7Z5A7); test: ELISA on N'-Term His FAM19A5, fit of the titration (OD 492 nm); R2 printed 0.9303
[4] = target: recombinant human FAM19A5 protein (His-tagged) (human) (UniProt Q7Z5A7); test: two-site sandwich ELISA; capture antibody 13B4; biotinylated detection antibody 2-13; antigen in ng/mL
[5] = target: recombinant human FAM19A5 protein (His-tagged) (human) (UniProt Q7Z5A7); test: two-site sandwich ELISA; capture antibody P2-A03; biotinylated detection antibody 2-13; antigen in ng/mL
[6] = target: recombinant human FAM19A5 protein (His-tagged) (human) (UniProt Q7Z5A7); test: two-site sandwich ELISA; capture antibody P2-F11; biotinylated detection antibody 2-13; antigen in ng/mL
[7] = target: recombinant human FAM19A5 protein (His-tagged) (human) (UniProt Q7Z5A7); test: two-site sandwich ELISA; capture antibody 1-65; biotinylated detection antibody 2-13; antigen in ng/mL
[8] = target: recombinant human FAM19A5 protein (His-tagged) (human) (UniProt Q7Z5A7); test: two-site sandwich ELISA; capture antibody P2-F11; S/N = O.D. at 10 ng/mL antigen / O.D. at 0 ng/mL; O.D. in column 0 printed 0.4
[9] = target: recombinant human FAM19A5 protein (His-tagged) (human) (UniProt Q7Z5A7); test: two-site sandwich ELISA; capture antibody 1-65; S/N = O.D. at 10 ng/mL antigen / O.D. at 0 ng/mL; O.D. in column 0 printed 0.44
[10] = target: recombinant human FAM19A5 protein (His-tagged) (human) (UniProt Q7Z5A7); test: two-site sandwich ELISA; capture antibody 3-2; biotinylated detection antibody 2-13; antigen in ng/mL
[11] = target: recombinant human FAM19A5 protein (His-tagged) (human) (UniProt Q7Z5A7); test: two-site sandwich ELISA; capture antibody 3-2; S/N = O.D. at 10 ng/mL antigen / O.D. at 0 ng/mL; O.D. in column 0 printed 0.38
[12] = target: recombinant human FAM19A5 protein (His-tagged) (human) (UniProt Q7Z5A7); test: ELISA on coated FAM19A5, as in Example 6
[13] = target: recombinant human FAM19A5 protein (His-tagged) (human) (UniProt Q7Z5A7); test: two-site sandwich ELISA; capture antibody 13B4; S/N = O.D. at 10 ng/mL antigen / O.D. at 0 ng/mL; grey cell; cells 10 and 0 under recheck
[14] = target: recombinant human FAM19A5 protein (His-tagged) (human) (UniProt Q7Z5A7); test: ELISA, His-FAM19A5 (positive control) coated on the plate, absorbance at 492 nm
[15] = target: recombinant human FAM19A5 protein (His-tagged) (human) (UniProt Q7Z5A7); test: ELISA on N'-Term His FAM19A5, fit of the titration (OD 492 nm); R2 printed 0.9813
[16] = target: recombinant human FAM19A5 protein (His-tagged) (human) (UniProt Q7Z5A7); test: ELISA on N'-Term His FAM19A5, fit of the titration; R2 printed 0.9813
[17] = target: recombinant human FAM19A5 protein (His-tagged) (human) (UniProt Q7Z5A7); test: ELISA on N'-Term His FAM19A5, fit of the titration (OD 492 nm); R2 printed -0.2016
[18] = target: recombinant human FAM19A5 protein (His-tagged) (human) (UniProt Q7Z5A7); test: ELISA on N'-Term His FAM19A5, fit of the titration; poor fit, R2 printed -0.2016
[19] = target: recombinant human FAM19A5 protein (His-tagged) (human) (UniProt Q7Z5A7); test: ELISA on N'-Term His FAM19A5, fit of the titration (OD 492 nm); R2 printed 0.9105
[20] = target: recombinant human FAM19A5 protein (His-tagged) (human) (UniProt Q7Z5A7); test: ELISA on N'-Term His FAM19A5, fit of the titration; R2 printed 0.9105
[21] = target: recombinant human FAM19A5 protein (His-tagged) (human) (UniProt Q7Z5A7); test: ELISA on N'-Term His FAM19A5, fit of the titration (OD 492 nm); R2 printed 0.9422
[22] = target: recombinant human FAM19A5 protein (His-tagged) (human) (UniProt Q7Z5A7); test: ELISA on N'-Term His FAM19A5, fit of the titration; R2 printed 0.9422
[23] = target: recombinant human FAM19A5 protein (His-tagged) (human) (UniProt Q7Z5A7); test: ELISA on N'-Term His FAM19A5, fit of the titration (OD 492 nm); R2 printed 0.1299
[24] = target: recombinant human FAM19A5 protein (His-tagged) (human) (UniProt Q7Z5A7); test: ELISA on N'-Term His FAM19A5, fit of the titration (OD 492 nm); R2 printed 0.2002

B1: anti-FAM19A5 antibody 2-13 (antibody, V domains shown)
VH: AVTLDESGGGLQTPGGALSLVCKASGFTFSSHGMFWVRQTPGKGLEYVAEITNDGSGTNYGSAVKGRATISRDNGQSTVRLQLNNLRAEDTGTYFCARSTYECPGGFSCWGDTGQIDAWGHGTEVIVSS
VL: ALTQPSSVSANPGETVKITCSGGSYSYGWFQQKSPGSALVTVIYWDDERPSDIPSRFSGALSGSTNTLTITGVQADDEAVYFCGTEDISGTAGVFGAGTTLTVL
Binder B1 has a Kd [1] of 1.96 nM, a S/N [2] of 2.7 and a Bmax [3] of 2.41. For the same binder, the O.D., antigen 100 [4] was 1.48, the O.D., antigen 100 [5] was 1.88 and the O.D., antigen column 10 [5] was 1.07. It also gave an O.D., antigen 100 [6] of 1.94, an O.D., antigen column 10 [6] of 1.91 and an O.D., antigen 100 [7] of 2.02. The O.D., antigen column 10 [7] was 1.8, the S/N [8] was 4.8 and the S/N [9] was 4.1. The O.D., antigen 100 [10] was 2.01, the O.D., antigen column 10 [10] was 1.97 and the S/N [11] was 5.1. The Kd [12] was 2.77 nM, the S/N [13] was 1.1 and the O.D. [14] was 3.6.

B2: P1-A03 (antibody, V domains shown)
VH: QSVEESGGRLVTPGTPLTLTCTVSGFSLSSDYMSWVRQAPGEGLEWIGIIYPSTTTYYASWAKGRFTISKTSSTTVELKMTSLTTEDTATYFCARGSNWSSGMNLWGPGTLVTVSS
VL: ELVMTQTPPSLSASVGETVRIRCLASEDIYSGISWYQQKPEKPPTLLISGASNLESGVPPRFSGSGSGTDYTLTIGGVQAEDAATYYCLGGYSYSSTGLTFGAGTNVEIKR
Binder B2 has a Bmax [15] of 2.45 and a Kd [16] of 7.5 nM.

B3: P1-A08 (antibody, V domains shown)
VH: QSLEESGGRLVTPGTPLTLTCTASGFSLSTYYMSWVRQAPGKGLEWIGIVYPSGTTYYANWAKGRFTISTASTTVDLMITSPTTEDTATYFCARGDSFGYGLWGPGTLVTVSS
VL: ELVLTQSPSVQVNLGQTVSLTCTADTLSRSYASWYQQKPGQAPVLLIYRDTSRPSGVPDRFSGSSSGNTATLTISGAQAGDEADYYCATSDGSGSNYQYVFGGGTQLTVTR
In the case of B3, the Bmax [17] is reported as 0.479 and the Kd [18] is reported as 6.95 nM.

B4: P2-A01 (antibody, V domains shown)
VH: QEQLVESGGRLVTPGTPLTLSCTASGFFLSGYYMSWVRQAPGKGLEWIGIIYPSGSTDYASWAKGRFTISKTSTTVDLKITTPTTEDTATYFCARVAGYVGYGYETFFDIWGPGTLVTVSL
VL: ELVMTQTPPSLSASVGETVRIRCLASEDIYSGISWYQQKPGKPPTLLIYGASNLESGVPPRFSGSGSGSDYTLTIGGVQAEDAATYYCLGGVTYSSTGTHLTFGAGTNVEIKR
For B4, the Bmax [19] was 1.19 and the Kd [20] was 9.09 nM.

B5: P2-C12 (antibody, V domains shown)
VH: QSLEESGGRLVTPGTPLTLTCTVSGFSLSTYAVTWVRQAPGKGLEWIGYINWRGGTSYANWAKGRFTISKTSSTTVDLKMTSPTTEDTATYFCARDASSGAAFGSYGMDPWGPGTLVTVSS
VL: ELDMTQTPSSVSAAVGGTVTIKCQASQSISSYLSWYQQKPGQPPKLLIYEASKLASGVPSRFSGSGYGTEFTLTISDLECADAATYYCQQGYSSTNVWNAFGGGTNVEIKR
Work on B5 yielded a Bmax [21] of 1.73 and a Kd [22] of 7.64 nM.

B6: P1-F02 (antibody, V domains shown)
VH: QSLEESGGRLVTPGTPLTLTCTASGFSLSNYYMGWVRQAPGEGLEWIGIIYASGSTYYASWAKGRFTISKTSTTVDLKMTSLTTEDTATYFCARIDIGVGDYGWAYDRLDLWGQGTLVTVSS
VL: ELDMTQTPPSLSASVGETVRIRCLASEDIYSGISWYQQKPGKPPTLLIYGASNLESGVPPRFSGSGSGTDYTLTIGGVQAEDAATYYCLGGYSYSSITFGAGTNVEIKR
B6 gave a Bmax [23] of 0.172.

B7: P2-F07 (antibody, V domains shown)
VH: QSLEESGGRLVTPGTPLTLTCTASGFSLSSYYMNWVRQAPGKGLEWIGIIYPSGTTYYAGWAKGRFTISKTSTTVDLKITSPTSEDTATYFCARTVSGYFDIWGPGTLVTVSL
VL: ELDLTQTPPSLSASVGGTVTINCLASEDIYSALAWYQQKPGKPPTLLISGTSNLESGVPPRFSGSGSGTDYTLTIGGVQAEDAATYFCQGYSSYPLTFGAGTNVEIKR
With B7 the Bmax [24] was 0.134.
